Data published in patent US20090011997A1 (THERATECHNOLOGIES, published 2009).
Bridge positions count the residues as written; N and C are the ends. Square brackets hold non-standard residues; d marks the D form. Ends that are not written are not given here. Nle = CCCC[C@H](N)C(=O)O

Legend:
[1] = target: MCR1 receptor (on MCR1 receptor-expressing B16-F1 cells) (UniProt Q01727 1-315); experiment: cell-based or functional assay
[2] = target: ANP receptor (on ANP receptor-expressing LLC-PK1 cells); experiment: cell-based or functional assay

MCR1 receptor (on MCR1 receptor-expressing B16-F1 cells), sequence (Q01727 whole entry): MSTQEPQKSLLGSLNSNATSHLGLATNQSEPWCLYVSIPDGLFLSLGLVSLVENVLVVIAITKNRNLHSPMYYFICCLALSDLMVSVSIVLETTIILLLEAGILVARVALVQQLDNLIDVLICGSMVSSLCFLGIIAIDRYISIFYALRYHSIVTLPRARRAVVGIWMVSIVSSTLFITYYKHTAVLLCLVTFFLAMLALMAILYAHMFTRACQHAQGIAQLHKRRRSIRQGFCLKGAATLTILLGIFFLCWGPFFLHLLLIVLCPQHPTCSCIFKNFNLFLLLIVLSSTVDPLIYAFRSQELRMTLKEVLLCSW

Binder	EC50 on the production of cAMP (BC16-F1 cells) [1] [nM]	EC50 on the production of cGMP (LLC-PK1 cells) [2] [nM]
Ac-H[dF]RWGKPMCFGGRMGAQSGLGCNSFRY-NH2 (disulfide 9-22; SMILES CSCC[C@@H]1NC(=O)[C@H](CCCNC(=N)N)NC(=O)CNC(=O)CNC(=O)[C@H](Cc2ccccc2)NC(=O)[C@@H](NC(=O)[C@H](CCSC)NC(=O)[C@@H]2CCCN2C(=O)[C@H](CCCCN)NC(=O)CNC(=O)[C@H](Cc2c[nH]c3ccccc23)NC(=O)[C@H](CCCNC(=N)N)NC(=O)[C@@H](Cc2ccccc2)NC(=O)[C@H](Cc2c[nH]cn2)NC(C)=O)CSSC[C@@H](C(=O)N[C@@H](CC(N)=O)C(=O)N[C@@H](CO)C(=O)N[C@@H](Cc2ccccc2)C(=O)N[C@@H](CCCNC(=N)N)C(=O)N[C@@H](Cc2ccc(O)cc2)C(N)=O)NC(=O)CNC(=O)[C@H](CC(C)C)NC(=O)CNC(=O)[C@H](CO)NC(=O)[C@H](CCC(N)=O)NC(=O)[C@H](C)NC(=O)CNC1=O) [bifunctional hormone of SEQ ID NO: 44]	1.2	–
Ac-EHFRWGRRSSCFGGRMDRIGAQSGLGCNSFRY-NH2 (disulfide 11-27; SMILES CC[C@H](C)[C@@H]1NC(=O)[C@H](CCCNC(=N)N)NC(=O)[C@H](CC(=O)O)NC(=O)[C@H](CCSC)NC(=O)[C@H](CCCNC(=N)N)NC(=O)CNC(=O)CNC(=O)[C@H](Cc2ccccc2)NC(=O)[C@@H](NC(=O)[C@H](CO)NC(=O)[C@H](CO)NC(=O)[C@H](CCCNC(=N)N)NC(=O)[C@H](CCCNC(=N)N)NC(=O)CNC(=O)[C@H](Cc2c[nH]c3ccccc23)NC(=O)[C@H](CCCNC(=N)N)NC(=O)[C@H](Cc2ccccc2)NC(=O)[C@H](Cc2c[nH]cn2)NC(=O)[C@H](CCC(=O)O)NC(C)=O)CSSC[C@@H](C(=O)N[C@@H](CC(N)=O)C(=O)N[C@@H](CO)C(=O)N[C@@H](Cc2ccccc2)C(=O)N[C@@H](CCCNC(=N)N)C(=O)N[C@@H](Cc2ccc(O)cc2)C(N)=O)NC(=O)CNC(=O)[C@H](CC(C)C)NC(=O)CNC(=O)[C@H](CO)NC(=O)[C@H](CCC(N)=O)NC(=O)[C@H](C)NC(=O)CNC1=O) [bifunctional hormone of SEQ ID NO: 41]	–	8.9
Ac-H[dF]RWGKP[Nle]CHFGGR[Nle]DRISCYR-NH2 (disulfide 9-20; SMILES CCCC[C@@H]1NC(=O)[C@H](CCCNC(=N)N)NC(=O)CNC(=O)CNC(=O)[C@H](Cc2ccccc2)NC(=O)[C@H](Cc2c[nH]cn2)NC(=O)[C@@H](NC(=O)[C@H](CCCC)NC(=O)[C@@H]2CCCN2C(=O)[C@H](CCCCN)NC(=O)CNC(=O)[C@H](Cc2c[nH]c3ccccc23)NC(=O)[C@H](CCCNC(=N)N)NC(=O)[C@@H](Cc2ccccc2)NC(=O)[C@H](Cc2c[nH]cn2)NC(C)=O)CSSC[C@@H](C(=O)N[C@@H](Cc2ccc(O)cc2)C(=O)N[C@@H](CCCNC(=N)N)C(N)=O)NC(=O)[C@H](CO)NC(=O)[C@H]([C@@H](C)CC)NC(=O)[C@H](CCCNC(=N)N)NC(=O)[C@H](CC(=O)O)NC1=O) [bifunctional hormone of SEQ ID NO: 34]	62.5	132
Ac-HRWGKPMCFGGRMDRIGAQSGLGCNSFRY-NH2 (disulfide 8-24; SMILES CC[C@H](C)[C@@H]1NC(=O)[C@H](CCCNC(=N)N)NC(=O)[C@H](CC(=O)O)NC(=O)[C@H](CCSC)NC(=O)[C@H](CCCNC(=N)N)NC(=O)CNC(=O)CNC(=O)[C@H](Cc2ccccc2)NC(=O)[C@@H](NC(=O)[C@H](CCSC)NC(=O)[C@@H]2CCCN2C(=O)[C@H](CCCCN)NC(=O)CNC(=O)[C@H](Cc2c[nH]c3ccccc23)NC(=O)[C@H](CCCNC(=N)N)NC(=O)[C@H](Cc2c[nH]cn2)NC(C)=O)CSSC[C@@H](C(=O)N[C@@H](CC(N)=O)C(=O)N[C@@H](CO)C(=O)N[C@@H](Cc2ccccc2)C(=O)N[C@@H](CCCNC(=N)N)C(=O)N[C@@H](Cc2ccc(O)cc2)C(N)=O)NC(=O)CNC(=O)[C@H](CC(C)C)NC(=O)CNC(=O)[C@H](CO)NC(=O)[C@H](CCC(N)=O)NC(=O)[C@H](C)NC(=O)CNC1=O) [bifunctional hormone of SEQ ID NO: 43]	–	86.8
Ac-H[dF]RWGKPMCFGGRMDRIGAQSGLGCNSFRY-NH2 (disulfide 9-25; SMILES CC[C@H](C)[C@@H]1NC(=O)[C@H](CCCNC(=N)N)NC(=O)[C@H](CC(=O)O)NC(=O)[C@H](CCSC)NC(=O)[C@H](CCCNC(=N)N)NC(=O)CNC(=O)CNC(=O)[C@H](Cc2ccccc2)NC(=O)[C@@H](NC(=O)[C@H](CCSC)NC(=O)[C@@H]2CCCN2C(=O)[C@H](CCCCN)NC(=O)CNC(=O)[C@H](Cc2c[nH]c3ccccc23)NC(=O)[C@H](CCCNC(=N)N)NC(=O)[C@@H](Cc2ccccc2)NC(=O)[C@H](Cc2c[nH]cn2)NC(C)=O)CSSC[C@@H](C(=O)N[C@@H](CC(N)=O)C(=O)N[C@@H](CO)C(=O)N[C@@H](Cc2ccccc2)C(=O)N[C@@H](CCCNC(=N)N)C(=O)N[C@@H](Cc2ccc(O)cc2)C(N)=O)NC(=O)CNC(=O)[C@H](CC(C)C)NC(=O)CNC(=O)[C@H](CO)NC(=O)[C@H](CCC(N)=O)NC(=O)[C@H](C)NC(=O)CNC1=O) [bifunctional hormone of SEQ ID NO: 33]	10.4	69
Ac-H[dF]RWGKP[Nle]CFGGR[Nle]DRIGAQSGLGCNSFRY-NH2 (disulfide 9-25; SMILES CCCC[C@@H]1NC(=O)[C@H](CCCNC(=N)N)NC(=O)CNC(=O)CNC(=O)[C@H](Cc2ccccc2)NC(=O)[C@@H](NC(=O)[C@H](CCCC)NC(=O)[C@@H]2CCCN2C(=O)[C@H](CCCCN)NC(=O)CNC(=O)[C@H](Cc2c[nH]c3ccccc23)NC(=O)[C@H](CCCNC(=N)N)NC(=O)[C@@H](Cc2ccccc2)NC(=O)[C@H](Cc2c[nH]cn2)NC(C)=O)CSSC[C@@H](C(=O)N[C@@H](CC(N)=O)C(=O)N[C@@H](CO)C(=O)N[C@@H](Cc2ccccc2)C(=O)N[C@@H](CCCNC(=N)N)C(=O)N[C@@H](Cc2ccc(O)cc2)C(N)=O)NC(=O)CNC(=O)[C@H](CC(C)C)NC(=O)CNC(=O)[C@H](CO)NC(=O)[C@H](CCC(N)=O)NC(=O)[C@H](C)NC(=O)CNC(=O)[C@H]([C@@H](C)CC)NC(=O)[C@H](CCCNC(=N)N)NC(=O)[C@H](CC(=O)O)NC1=O) [bifunctional hormone of SEQ ID NO: 35]	31.4	216
[Nle]EHFGGR[Nle]DRISKYRH[dF]RW-NH2 (lactam 2-13; N-terminus assumed; SMILES CCCC[C@@H]1NC(=O)[C@H](CCCNC(=N)N)NC(=O)CNC(=O)CNC(=O)[C@H](Cc2ccccc2)NC(=O)[C@H](Cc2c[nH]cn2)NC(=O)[C@@H](NC(=O)[C@@H](N)CCCC)CCC(=O)NCCCC[C@@H](C(=O)N[C@@H](Cc2ccc(O)cc2)C(=O)N[C@@H](CCCNC(=N)N)C(=O)N[C@@H](Cc2c[nH]cn2)C(=O)N[C@H](Cc2ccccc2)C(=O)N[C@@H](CCCNC(=N)N)C(=O)N[C@@H](Cc2c[nH]c3ccccc23)C(N)=O)NC(=O)[C@H](CO)NC(=O)[C@H]([C@@H](C)CC)NC(=O)[C@H](CCCNC(=N)N)NC(=O)[C@H](CC(=O)O)NC1=O) [bifunctional hormone of SEQ ID NO: 29]	–	1430

The remaining lines, values ahead:

EC50 on the production of cAMP (BC16-F1 cells) [1] [nM]	EC50 on the production of cGMP (LLC-PK1 cells) [2] [nM]	Binder
28	–	Ac-H[dF]RWGPKPVQGSGCPGRKMDRISSSSGLGCKVLRRH-NH2 (disulfide 14-30; SMILES CC[C@H](C)[C@@H]1NC(=O)[C@H](CCCNC(=N)N)NC(=O)[C@H](CC(=O)O)NC(=O)[C@H](CCSC)NC(=O)[C@H](CCCCN)NC(=O)[C@H](CCCNC(=N)N)NC(=O)CNC(=O)[C@@H]2CCCN2C(=O)[C@@H](NC(=O)CNC(=O)[C@H](CO)NC(=O)CNC(=O)[C@H](CCC(N)=O)NC(=O)[C@@H](NC(=O)[C@@H]2CCCN2C(=O)[C@H](CCCCN)NC(=O)[C@@H]2CCCN2C(=O)CNC(=O)[C@H](Cc2c[nH]c3ccccc23)NC(=O)[C@H](CCCNC(=N)N)NC(=O)[C@@H](Cc2ccccc2)NC(=O)[C@H](Cc2c[nH]cn2)NC(C)=O)C(C)C)CSSC[C@@H](C(=O)N[C@@H](CCCCN)C(=O)N[C@H](C(=O)N[C@@H](CC(C)C)C(=O)N[C@@H](CCCNC(=N)N)C(=O)N[C@@H](CCCNC(=N)N)C(=O)N[C@@H](Cc2c[nH]cn2)C(N)=O)C(C)C)NC(=O)CNC(=O)[C@H](CC(C)C)NC(=O)CNC(=O)[C@H](CO)NC(=O)[C@H](CO)NC(=O)[C@H](CO)NC(=O)[C@H](CO)NC1=O) [bifunctional hormone of SEQ ID NO: 46]
365	–	Ac-H[dF]RWSPKMVQGSGCPGRKMDRISSSSGLGCKVLRRH-NH2 (disulfide 14-30; SMILES CC[C@H](C)[C@@H]1NC(=O)[C@H](CCCNC(=N)N)NC(=O)[C@H](CC(=O)O)NC(=O)[C@H](CCSC)NC(=O)[C@H](CCCCN)NC(=O)[C@H](CCCNC(=N)N)NC(=O)CNC(=O)[C@@H]2CCCN2C(=O)[C@@H](NC(=O)CNC(=O)[C@H](CO)NC(=O)CNC(=O)[C@H](CCC(N)=O)NC(=O)[C@@H](NC(=O)[C@H](CCSC)NC(=O)[C@H](CCCCN)NC(=O)[C@@H]2CCCN2C(=O)[C@H](CO)NC(=O)[C@H](Cc2c[nH]c3ccccc23)NC(=O)[C@H](CCCNC(=N)N)NC(=O)[C@@H](Cc2ccccc2)NC(=O)[C@H](Cc2c[nH]cn2)NC(C)=O)C(C)C)CSSC[C@@H](C(=O)N[C@@H](CCCCN)C(=O)N[C@H](C(=O)N[C@@H](CC(C)C)C(=O)N[C@@H](CCCNC(=N)N)C(=O)N[C@@H](CCCNC(=N)N)C(=O)N[C@@H](Cc2c[nH]cn2)C(N)=O)C(C)C)NC(=O)CNC(=O)[C@H](CC(C)C)NC(=O)CNC(=O)[C@H](CO)NC(=O)[C@H](CO)NC(=O)[C@H](CO)NC(=O)[C@H](CO)NC1=O) [bifunctional hormone of SEQ ID NO: 45]
–	3.3	SLRRSSCFGGRMDRIGAQSGLGCNSFRY (disulfide 7-23; also: C-terminal amide in Table IV, not in Table I) [native ANP (SEQ ID NO: 2)]
